We go through eleven molecules from article doi:10.1101/2024.08.06.606761 (bioRxiv, 2024).

Holding throughout (test): fluorescence polarisation
Background: Fluorescence polarisation rises when a labelled molecule tumbles more slowly, as on binding a larger partner.

In assay [1] the target is talin-1 (TLN1) PTB domain, tag cleaved (FP) (human).
The target of assay [2] is SARS-CoV-2 NSP3 ADRP domain, tag cleaved (FP) (SARS-CoV-2).
Assay [3] addresses SARS-CoV-2 NSP3 UBl1 domain, tag cleaved (FP) (SARS-CoV-2).
Assay [4] concerns the target G3BP1 NTF2-like domain, tag cleaved (FP) (human, UniProt Q13283 11-133).
For assay [5], the target named is SARS-CoV-2 NSP3 SUD-M domain, tag cleaved (FP) (SARS-CoV-2).
In assay [6] the target is SARS-CoV-2 non-structural protein (NSP) 9, tag cleaved (FP) (SARS-CoV-2).

Sequence of talin-1 (TLN1) PTB domain, tag cleaved (FP) (human) (Q9Y490 whole entry, the tested form may be a part): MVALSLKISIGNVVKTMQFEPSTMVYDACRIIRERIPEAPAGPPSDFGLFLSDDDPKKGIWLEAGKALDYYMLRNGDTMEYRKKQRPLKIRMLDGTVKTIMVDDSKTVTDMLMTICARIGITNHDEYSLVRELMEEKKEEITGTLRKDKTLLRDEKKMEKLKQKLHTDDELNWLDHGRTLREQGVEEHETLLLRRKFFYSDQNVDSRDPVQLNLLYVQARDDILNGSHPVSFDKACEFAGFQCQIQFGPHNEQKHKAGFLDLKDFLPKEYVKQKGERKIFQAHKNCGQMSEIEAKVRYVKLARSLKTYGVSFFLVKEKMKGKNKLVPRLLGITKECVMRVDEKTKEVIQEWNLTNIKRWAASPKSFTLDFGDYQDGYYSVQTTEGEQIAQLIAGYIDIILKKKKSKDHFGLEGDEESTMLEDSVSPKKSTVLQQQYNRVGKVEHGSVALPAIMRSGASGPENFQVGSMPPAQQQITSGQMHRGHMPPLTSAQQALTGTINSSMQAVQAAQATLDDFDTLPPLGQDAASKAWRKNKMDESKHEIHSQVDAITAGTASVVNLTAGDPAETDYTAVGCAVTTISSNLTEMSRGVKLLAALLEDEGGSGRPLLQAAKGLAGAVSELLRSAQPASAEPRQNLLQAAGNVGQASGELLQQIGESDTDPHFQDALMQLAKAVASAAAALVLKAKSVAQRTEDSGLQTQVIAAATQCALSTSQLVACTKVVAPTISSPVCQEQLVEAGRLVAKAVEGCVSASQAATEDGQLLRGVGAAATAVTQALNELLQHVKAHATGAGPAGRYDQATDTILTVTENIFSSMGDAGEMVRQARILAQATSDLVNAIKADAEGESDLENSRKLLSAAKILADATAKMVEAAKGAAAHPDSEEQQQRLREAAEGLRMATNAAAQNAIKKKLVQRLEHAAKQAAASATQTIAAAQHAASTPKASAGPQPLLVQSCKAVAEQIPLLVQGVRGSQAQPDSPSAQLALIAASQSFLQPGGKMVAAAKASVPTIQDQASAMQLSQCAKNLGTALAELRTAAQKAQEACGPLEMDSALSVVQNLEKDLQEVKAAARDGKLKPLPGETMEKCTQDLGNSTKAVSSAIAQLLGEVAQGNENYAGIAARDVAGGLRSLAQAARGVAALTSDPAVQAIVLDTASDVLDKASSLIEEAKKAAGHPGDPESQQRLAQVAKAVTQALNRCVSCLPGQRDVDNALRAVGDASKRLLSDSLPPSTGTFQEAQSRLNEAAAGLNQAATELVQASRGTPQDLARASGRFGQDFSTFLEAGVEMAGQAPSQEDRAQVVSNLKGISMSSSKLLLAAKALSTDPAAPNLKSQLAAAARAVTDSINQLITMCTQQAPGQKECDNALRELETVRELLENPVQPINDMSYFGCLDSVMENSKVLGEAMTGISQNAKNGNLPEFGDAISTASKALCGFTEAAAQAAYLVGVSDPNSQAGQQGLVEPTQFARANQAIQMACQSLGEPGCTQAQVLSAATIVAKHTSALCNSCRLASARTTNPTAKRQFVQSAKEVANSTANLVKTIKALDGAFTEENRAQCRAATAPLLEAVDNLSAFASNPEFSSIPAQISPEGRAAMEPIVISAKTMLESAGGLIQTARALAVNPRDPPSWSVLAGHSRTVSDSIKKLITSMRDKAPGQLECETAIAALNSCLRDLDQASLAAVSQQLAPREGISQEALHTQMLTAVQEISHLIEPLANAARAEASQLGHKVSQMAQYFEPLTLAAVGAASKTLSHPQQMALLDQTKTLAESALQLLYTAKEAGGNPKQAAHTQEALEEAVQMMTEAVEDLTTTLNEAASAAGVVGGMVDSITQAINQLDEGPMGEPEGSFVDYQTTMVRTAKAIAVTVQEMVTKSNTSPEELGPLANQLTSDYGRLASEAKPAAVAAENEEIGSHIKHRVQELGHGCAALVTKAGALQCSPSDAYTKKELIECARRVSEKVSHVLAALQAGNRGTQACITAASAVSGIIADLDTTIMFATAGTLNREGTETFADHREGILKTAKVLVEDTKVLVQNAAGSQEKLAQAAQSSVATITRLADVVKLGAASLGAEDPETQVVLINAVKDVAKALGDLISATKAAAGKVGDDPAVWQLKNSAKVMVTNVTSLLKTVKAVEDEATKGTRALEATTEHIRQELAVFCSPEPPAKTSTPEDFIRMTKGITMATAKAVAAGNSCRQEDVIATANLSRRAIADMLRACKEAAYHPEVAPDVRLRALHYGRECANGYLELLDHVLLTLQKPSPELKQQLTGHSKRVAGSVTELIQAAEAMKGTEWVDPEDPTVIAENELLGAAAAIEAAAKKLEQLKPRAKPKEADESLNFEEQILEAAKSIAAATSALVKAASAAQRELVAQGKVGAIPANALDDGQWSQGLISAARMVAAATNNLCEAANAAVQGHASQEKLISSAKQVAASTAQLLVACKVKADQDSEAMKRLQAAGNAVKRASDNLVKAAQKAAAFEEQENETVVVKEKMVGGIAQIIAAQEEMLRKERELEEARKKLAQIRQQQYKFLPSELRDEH
Sequence of G3BP1 NTF2-like domain, tag cleaved (FP) (Q13283 11-133): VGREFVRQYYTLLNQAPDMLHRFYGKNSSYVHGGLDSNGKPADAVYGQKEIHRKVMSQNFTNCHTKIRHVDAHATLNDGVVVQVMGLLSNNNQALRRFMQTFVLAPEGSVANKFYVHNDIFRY

A word on the Kd: it is the constant that tells how readily two partners part at equilibrium. A low value points to higher affinity. Molecule “TPTE2 92-107 F97W peptide (from UniProt Q6XPS3 92-107)” registered a Kd in assay [1] of 0.1 µM.

Consider “TPTE2 92-107 F97Y peptide (from UniProt Q6XPS3 92-107)”, for which the Kd in assay [1] is 150 µM.

In the case of “TPTE2 92-107 I104A peptide (from UniProt Q6XPS3 92-107)”, in assay [1], the Kd turned out to be 18 µM.

In turn, “TPTE2 92-107 S100N peptide (from UniProt Q6XPS3 92-107)” returned a Kd in assay [1] of 1.7 µM.

“TPTE2 92-107 Y103W peptide (from UniProt Q6XPS3 92-107)” gave a Kd in assay [1] of 22 µM.

On to “wild-type MBOAT1 16-31 peptide (from UniProt Q6ZNC8 16-31)”, for which the equilibrium dissociation constant (Kd) in assay [2] was found to be 49 µM.

With “wild-type NCOA2 1073-1088 peptide (from UniProt Q15596 1073-1088)”, the Kd in assay [3] was determined as 39 µM.

Turning to wild-type TPTE2 92-107 peptide, the Kd in assay [1] was found to be 4.9 µM.

APRITFGGPSDSTGS [wildtype SARS-CoV-2 N 12-26 peptide] returned a Kd in assay [4] of 2.3 µM.

As for QFTEEDLHFVLYGVTPSL (modifications not checked) [wild-type PRDM14 peptide (FP)], the Kd in assay [5] is 74 µM.

As for QGAWLGAPEPWEPL (modifications not checked) [wild-type NOTCH4 peptide (FP)], the Kd in assay [6] amounted to 72 µM.
